Results from patent US11773160 (ANAVEON, dated 2023).
Values belong to the binder of their own block, whether it stands above or below them.

Columns and labels:
[1] = biological target: T1, Recombinant human IL-2 (human, UniProt P60568 21-153); assay: Octet BLI, antibody immobilised on amine reactive sensors, IL-2 in solution
T1 construct: also called hIL-2; recombinant IL-2 (Acro Biosystems, IL2-H4113)
Method: (§1) Antibody A, B or C were immobilized on amine reactive (2nd Generation) sensors (ForteBio, 18-5092). Association (600s) and dissociation (900s) of a dilution series of recombinant IL-2 (Acro Biosystems, IL2-H4113) were measured on the antibody-coated biosensors on an Octet-System (Octet RED, ForteBio). K_D values were obtained by fitting the kinetics data with the ForteBio Data Analysis Software (8.2).

[2] = biological target: T1, Recombinant human IL-2; assay: ELISA, recombinant human IL-2 coated, antibody titrated, anti-human IgG-Peroxidase
Method: Recombinant human IL-2 was coated on Maxisorp ELISA plates (Invitrogen, 44-2404-21) at 5 µg/ml, 4° C. over night. After 2 hours blocking, antibodies A, B and C were incubated in a serial dilution starting from 10 µg/ml in assay buffer. The antibodies were detected with anti-human IgG-Peroxidase (Sigma, A0170). After addition and blockade of the […] substrate, absorption was read ($A450$-$A570$ at plate reader, Spectramax iD3). $EC50$ values were obtained by plotting Absorbance vs. log(Concentration).

[3] = biological target: T1, Recombinant human IL-2; assay: Octet BLI, antibody immobilised on amine reactive sensors, IL-2 in solution; Octet, free antibody B against recombinant hIL-2: weak binding, KD 269.8 nM
Method: as §1

T1 sequence (P60568 21-153 limits assumed): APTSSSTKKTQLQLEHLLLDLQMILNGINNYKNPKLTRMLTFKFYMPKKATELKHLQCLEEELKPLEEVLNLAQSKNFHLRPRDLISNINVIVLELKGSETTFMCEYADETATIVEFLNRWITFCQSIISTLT

Kd [1]: 2.1 nM
EC50 [2]: 0.37 nM
B1: Antibody A (antibody, human IgG1, kappa, N297A, V domains shown)
VH: EVQLVQSGAEVKKPGESLKISCKGSGYAFTNYLIEWVRQMPGKGLEWMGVINPGSGGTNYNEKFKGQVTISADKSISTAYLQWSSLKASDTAMYYCARWRGEGYYAYFDVWGQGTTVTVSS
VL: AIRLTQSPSSFSASTGDRVTITCKASQSVDYQGDSYMNWYQQKPGKAPKLLIYAASNLESGVPSRFSGSGSGTDFTLTISSLQSEDFATYYCQQSNEDPYTFGGGTKVEIKR
notes: Humanized full-length human IgG1 kappa; The printed heavy chain carries the N297A Fc

Kd [1]: > 1000 nM
B2: Antibody C (antibody, human IgG1, kappa, V domains shown)
VH: EVQLVQSGAEVKKPGESLKISCKGSGYSFTNFYIHWVRQAPGQRLEWMGSIYPNYGDTAYNQKFKDRFVFSLDTSVSTAYLQISSLKAEDTAVYYCARGYSYAMDYWGQGTTVTVSS
VL: DIQMTQSPSSVSASVGDRVTITCSASQGISGDLNWYQQKPGKAPKLLIYHTSSLHSGVPSRFSGSGSGTDFTLTISSLQPEDFATYYCQYYSKDLLTFGGGTKLEIKR
notes: Control antibody, full-length human IgG1 kappa

Kd [3]: 270 nM
B3: Antibody B (antibody, human IgG1, kappa, V domains shown)
VH: QVQLVESGGGVVQPGRSLRLSCAASGYTFSSYLIEWVRQAPGKGLEWVAVINPGSGGTNYADSVKGRFTISADKSKNTAYLQMNSLRAEDTAVYYCARWRGDGYYAYFDVWGQGTTVTVSS
VL: EIVLTQSPATLSVSPGERATLSCRASQSVSYDGDSYMNWYQQKPGQAPRLLIYAASNLASGIPARFSGSGSGTEFTLTISSLQSEDAAVYYCQQSNEDPYTFGGGTKVEIKR
notes: Full-length human IgG1 kappa
